The values that follow come from paper PMC5988664.

The term stoichiometry N denotes a count of units in the complex or per binding partner.

The assay has as its target endothelin-converting enzyme 1 (Ece1), monomer (mouse (endogenous in NMuMG and C2C12)). The assay is described as follows: cross-linking.

Sequence of endothelin-converting enzyme 1 (Ece1), monomer (Q4PZA2 whole entry): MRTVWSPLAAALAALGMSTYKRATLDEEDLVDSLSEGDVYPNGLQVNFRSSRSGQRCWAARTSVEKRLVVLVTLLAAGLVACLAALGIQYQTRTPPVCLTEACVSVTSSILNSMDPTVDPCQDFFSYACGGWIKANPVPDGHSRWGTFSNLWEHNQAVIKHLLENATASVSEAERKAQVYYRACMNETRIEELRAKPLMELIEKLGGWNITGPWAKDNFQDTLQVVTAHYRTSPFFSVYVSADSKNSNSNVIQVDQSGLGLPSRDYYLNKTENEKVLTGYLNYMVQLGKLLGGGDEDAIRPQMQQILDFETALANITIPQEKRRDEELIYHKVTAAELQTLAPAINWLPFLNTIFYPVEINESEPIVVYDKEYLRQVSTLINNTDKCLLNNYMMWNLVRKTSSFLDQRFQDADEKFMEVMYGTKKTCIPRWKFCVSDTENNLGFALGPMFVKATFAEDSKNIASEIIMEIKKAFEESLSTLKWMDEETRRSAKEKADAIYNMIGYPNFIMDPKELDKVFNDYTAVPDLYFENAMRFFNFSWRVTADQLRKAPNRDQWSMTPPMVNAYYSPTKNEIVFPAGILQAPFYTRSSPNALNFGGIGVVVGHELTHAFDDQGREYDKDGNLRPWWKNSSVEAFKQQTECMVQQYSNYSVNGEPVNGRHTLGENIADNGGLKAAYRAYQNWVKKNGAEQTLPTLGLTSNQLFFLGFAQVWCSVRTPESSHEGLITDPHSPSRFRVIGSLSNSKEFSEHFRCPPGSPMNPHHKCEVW

Turning to “endothelin-converting enzyme 1 (Ece1), monomer”, the stoichiometry N is 2.
